Data taken from patent US20210317204A1 (ALMAC DISCOVERY, published 2021).
Numbering of substitutions follows the chain as printed. Numbers in names are those of the source.

B1: BA11 humanised VNAR (VNAR)
VNAR: TRVDQSPSSLSASVGDRVTITCVLTDTSYPLYSTYWYRKNPGSSNKEQISISGRYSESVNKGTKSFTLTISSLQPEDSATYYCRAMSTNIWTGDGAGTKVEIK
B2: BA11-aminoxy (VNAR)
VNAR: B1 VNAR
modifications: C-terminal aminoxy from dioxyamine cleavage of the intein fusion
B3: BA11-oxime-fluorescein (VNAR)
VNAR: B1 VNAR
modifications: C-terminal aminoxy joined by oxime to benzaldehyde-peg-fluorescein
B4: BA11 C-terminal cysteine derivative (VNAR)
VNAR: B1 VNAR
modifications: additional C-terminal cysteine from cysteine cleavage of the intein fusion
notes: also called BA11-cys
B5: BA11-cys-maleimide-peg-fluorescein (VNAR)
VNAR: B1 VNAR
modifications: C-terminal cysteine joined to maleimide-peg-fluorescein
notes: also called BA11-cys-mal-Fl
B6: BA11 C-terminal thiol derivative (VNAR)
VNAR: B1 VNAR
modifications: C-terminal thiol from cysteamine cleavage of the intein fusion
notes: also called BA11-SH
B7: BA11-S-maleimide-peg-fluorescein (VNAR)
VNAR: B1 VNAR
modifications: C-terminal thiol joined to maleimide-peg-fluorescein
notes: also called BA11-S-mal-Fl
B8: P3A1-[G4S]5-P3A1 homodimer with His6Myc tag (VNAR)
chain: TRVDQTPRTATKETGESLTINCVLTDTSYGLYSTSWFRKNPGTTDWERMSIGGRYVESVNKGAKSFSLRIKDLTVADSATYYCKAREARHPWLRQWYDGAGTVLTVNGGGGSGGGGSGGGGSGGGGSGGGGSTRVDQTPRTATKETGESLTINCVLTDTSYGLYSTSWFRKNPGTTDWERMSIGGRYVESVNKGAKSFSLRIKDLTVADSATYYCKAREARHPWLRQWYDGAGTVLTVNQASGAHHHHHHGAEFEQKLISEEDL
notes: genetic fusion of two VNAR domains; also called P3A1 dimer 6xHis myc; P3A1-P3A1
B9: P3A1-P3A1-S-mal-vcMMAE (VNAR)
chain: TRVDQTPRTATKETGESLTINCVLTDTSYGLYSTSWFRKNPGTTDWERMSIGGRYVESVNKGAKSFSLRIKDLTVADSATYYCKAREARHPWLRQWYDGAGTVLTVNGGGGSGGGGSGGGGSGGGGSGGGGSTRVDQTPRTATKETGESLTINCVLTDTSYGLYSTSWFRKNPGTTDWERMSIGGRYVESVNKGAKSFSLRIKDLTVADSATYYCKAREARHPWLRQWYDGAGTVLTVNQASGAHHHHHHGAEFEQKLISEEDLG
modifications: chain 1 pos 265 (C-terminal Gly, written G): carboxyl amidated with cysteamine (intein cleavage); its thiol joined by thioether to maleimide MC vc PAB MMAE
B10: P3A1-P3A1-Ox-vcMMAE (VNAR)
chain: B9 chain
modifications: chain 1 pos 265 (C-terminal Gly, written G): carboxyl derivatised with O,O'-1,3-propanediylbishydroxylamine (C-terminal aminoxy), joined by oxime to benzaldehyde PEG2 vc PAB MMAE
notes: linker as for m77
B11: P3A1-P3A1-Ox-MMAE (VNAR)
chain: B9 chain
modifications: chain 1 pos 265 (C-terminal Gly, written G): carboxyl derivatised with O,O'-1,3-propanediylbishydroxylamine (C-terminal aminoxy), joined by oxime to benzaldehyde PEG4 MMAE (non-cleavable)
notes: linker as for m77
B12: P3A1 VNAR with 6xHis tag (VNAR, not shown: small tags and cut ends)
VNAR: TRVDQTPRTATKETGESLTINCVLTDTSYGLYSTSWFRKNPGTTDWERMSIGGRYVESVNKGAKSFSLRIKDLTVADSATYYCKAREARHPWLRQWYDGAGTVLTVN
notes: shark VNAR domain; also called P3A1 6xHis
B13: P3A1 VNAR with His6Myc tag (VNAR)
VNAR: TRVDQTPRTATKETGESLTINCVLTDTSYGLYSTSWFRKNPGTTDWERMSIGGRYVESVNKGAKSFSLRIKDLTVADSATYYCKAREARHPWLRQWYDGAGTVLTVNQ
notes: shark VNAR domain; also called P3A1 6xHis myc
B14: P3A1 dimer without tag (VNAR)
chain: TRVDQTPRTATKETGESLTINCVLTDTSYGLYSTSWFRKNPGTTDWERMSIGGRYVESVNKGAKSFSLRIKDLTVADSATYYCKAREARHPWLRQWYDGAGTVLTVNGGGGSGGGGSGGGGSGGGGSGGGGSTRVDQTPRTATKETGESLTINCVLTDTSYGLYSTSWFRKNPGTTDWERMSIGGRYVESVNKGAKSFSLRIKDLTVADSATYYCKAREARHPWLRQWYDGAGTVLTVN
notes: also called P3A1 dimer No tag
B15: ROR1 ECD Peptide 2 (peptide)
peptide: RSTIYGSRLRINLDTTDTGYFQ
notes: synthetic linear peptide; insoluble in PBS, repeated in 25% DMSO
B16: B1 G2 (loop-grafted humanised B1) (VNAR)
VNAR: TRVDQSPSSLSASVGDRVTITCVLTGANYGLASTYWYRKNPGSSNQERISISGRYSESVNKRTMSFTLTISSLQPEDSATYYCRAYPWGAGAPWLVQWYDGAGTKVEIKQ
notes: humanised VNAR
B17: B1 G1 (loop-grafted humanised B1) (VNAR)
VNAR: B16 VNAR with Q46K, R48Q, R62G, M64K
notes: humanised VNAR
B18: B1 humanised V5 (VNAR)
VNAR: B16 VNAR with T1A, R2S, L24V, S33A, R84K
notes: humanised VNAR; also called B1V5
B19: B1 humanised V7 (VNAR)
VNAR: B16 VNAR with T1A, R2S, L10A, V18L, L24V, S33A, R84K, V106L, I108V
notes: humanised VNAR; also called B1V7
B20: P3A1 V1 dimer (VNAR)
chain: TRVDQSPSSLSASVGDRVTITCVLTDTSYGLYSTSWFRKNPGTTDWERMSIGGRYVESVNKGAKSFTLTISSLQPEDFATYYCKAREARHPWLRQWYDGAGTKVEIKGGGGSGGGGSGGGGSGGGGSGGGGSTRVDQSPSSLSASVGDRVTITCVLTDTSYGLYSTSWFRKNPGTTDWERMSIGGRYVESVNKGAKSFTLTISSLQPEDFATYYCKAREARHPWLRQWYDGAGTKVEIKQASGAHHHHHHGAEFEQKLISEEDLG
notes: humanised VNAR dimer
B21: P3A1 G2 dimer (VNAR)
chain: B20 chain with S35Y, F37Y, V56S, F78S, K84R, S167Y, F169Y, V188S, F210S, K216R
notes: humanised VNAR dimer
B22: P3A1 G1 dimer (VNAR)
chain: TRVDQSPSSLSASVGDRVTITCVLTDTSYGLYSTYWYRKNPGSSNKEQISISGRYSESVNKGTKSFTLTISSLQPEDSATYYCRAREARHPWLRQWYDGAGTKVEIKGGGGSGGGGSGGGGSGGGGSGGGGSTRVDQSPSSLSASVGDRVTITCVLTDTSYGLYSTYWYRKNPGSSNKEQISISGRYSESVNKGTKSFTLTISSLQPEDSATYYCRAREARHPWLRQWYDGAGTKVEIKQASGAHHHHHHGAEFEQKLISEEDLG
notes: humanised VNAR dimer
B23: D3 humanised ADV2 (VNAR)
VNAR: TRVDQSPSSLSASVGDRVTITCVLTDTSYGLYSTSWFRKNPGTTDWERMSIGGRYSESVNKGAKSFTLTISSLQPEDSATYYCKAQSGMAISTGSGHGYNWYDGAGTKVEIKQ
notes: also called D3 AD V2
B24: D3 humanised EL V2 (VNAR)
VNAR: ASVNQSPSSLSASVGDRVTITCVLTDTSYGLYSTSWFRKNPGTTDWERMSIGGRYVESVNKRAKSFTLTISSLQPEDFATYYCKAQSGMAISTGSGHGYNWYDGAGTKVEIK
notes: also called D3 EL V2
B25: D3 humanised EL V4 (VNAR)
VNAR: B24 VNAR with F37Y, R38Q, K39Q, N40K
notes: also called D3 EL V4

Target: T1, cynomolgus serum albumin (cynomolgus)
T1 construct: also called CSA; Cyano
Experiment: SPR, CSA on chip, pH 7.4

T1 sequence (A2V9Z4 25-608): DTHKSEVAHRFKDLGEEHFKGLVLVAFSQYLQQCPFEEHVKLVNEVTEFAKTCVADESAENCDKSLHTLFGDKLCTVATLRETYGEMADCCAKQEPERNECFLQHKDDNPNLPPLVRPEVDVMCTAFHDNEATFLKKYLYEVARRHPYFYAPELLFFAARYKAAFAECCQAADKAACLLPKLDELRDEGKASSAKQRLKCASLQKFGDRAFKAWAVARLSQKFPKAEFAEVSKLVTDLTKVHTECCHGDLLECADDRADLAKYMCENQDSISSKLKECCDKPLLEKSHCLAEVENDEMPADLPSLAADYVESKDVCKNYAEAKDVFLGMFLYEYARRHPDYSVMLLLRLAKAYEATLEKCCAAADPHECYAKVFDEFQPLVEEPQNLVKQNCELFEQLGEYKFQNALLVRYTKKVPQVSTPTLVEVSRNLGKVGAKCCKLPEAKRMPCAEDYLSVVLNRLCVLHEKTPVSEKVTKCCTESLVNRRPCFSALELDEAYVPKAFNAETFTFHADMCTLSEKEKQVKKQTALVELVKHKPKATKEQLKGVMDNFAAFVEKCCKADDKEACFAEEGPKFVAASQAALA

Binder	Kd
B1	3.36 nM
B2	7.97 nM
B3	1.75 nM
B4	2.1 nM
B5	3.68 nM
B6	3.41 nM
B7	2.3 nM

Target: T2, human ROR1 extracellular domain-Fc fusion (human, UniProt Q01973 30-406)
T2 construct: extracellular domain; also called hROR1; ROR1-hFc
Experiment: SPR

Binder	Kd	koff	kon
B8	1.61 nM	0.00296 s⁻¹	1.86e+06 M⁻¹ s⁻¹
B9	0.59 nM	0.0026 s⁻¹	4.96e+06 M⁻¹ s⁻¹
B10	1.43 nM	0.00277 s⁻¹	2.07e+06 M⁻¹ s⁻¹
B11	0.78 nM	0.0032 s⁻¹	4.2e+06 M⁻¹ s⁻¹

Target: T2, human ROR1 extracellular domain-Fc …
Experiment: SPR
Remark: another data set of the same source

Binder	Kd	koff	kon
B12	7.8 nM	0.0206 s⁻¹	2.92e+06 M⁻¹ s⁻¹
B13	25.6 nM	0.025 s⁻¹	980000 M⁻¹ s⁻¹
B14	0.36 nM	0.000598 s⁻¹	1.67e+06 M⁻¹ s⁻¹
B8	0.35 nM	0.000637 s⁻¹	2.08e+06 M⁻¹ s⁻¹

Target: T3, human ROR2 extracellular domain-Fc fusion (human, UniProt Q01974 34-403)
T3 construct: extracellular domain; also called hROR2; ROR2-hFc
Experiment: SPR

Binder	binding result
B12	no binding
B13	no binding
B14	no binding

Target: T4, D3-[G4S]5-D3 homodimer
T4 construct: also called D3-D3; D3D3; not shown: C-terminal His6 or His6Myc tag (His6Myc in flow cytometry)
Experiment: competition ELISA: D3-D3 pre-incubated with the peptide (25% DMSO), residual binding to coated huROR1-Fc

T4 sequence (chain, as listed by the source): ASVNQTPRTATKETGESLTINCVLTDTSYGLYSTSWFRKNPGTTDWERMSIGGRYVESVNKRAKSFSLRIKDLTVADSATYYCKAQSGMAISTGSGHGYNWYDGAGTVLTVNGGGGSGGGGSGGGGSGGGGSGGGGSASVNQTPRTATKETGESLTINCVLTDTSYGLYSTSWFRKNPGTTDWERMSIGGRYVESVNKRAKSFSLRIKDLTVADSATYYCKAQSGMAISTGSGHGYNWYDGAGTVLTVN

Binder	binding result
YMESLHMQGEIENQI (synthetic linear peptide) [ROR1 ECD Peptide 1]	no binding
B15	no binding
CQPWNSQYPHTHTFTALRFP (synthetic linear peptide) [ROR1 ECD Peptide 3]	no binding
QCVATNGKEVVSSTGVLFVKFGPPPTASPGYSDEYE (synthetic linear peptide) [ROR1 ECD Peptide 4]	no binding

Target: T2, human ROR1 extracellular domain-Fc …
Experiment: SPR, hROR1 ECD-Fc on chip

Binder	Kd	koff	kon
B16	45.9 nM	0.0079 s⁻¹	185000 M⁻¹ s⁻¹
B17	82.8 nM	0.0162 s⁻¹	220000 M⁻¹ s⁻¹
B18	0.74 nM	3.85e-05 s⁻¹	52000 M⁻¹ s⁻¹
B19	0.77 nM	5.54e-05 s⁻¹	77400 M⁻¹ s⁻¹
B20	0.18 nM	0.000846 s⁻¹	4.78e+06 M⁻¹ s⁻¹
B21	0.77 nM	0.00119 s⁻¹	1.88e+06 M⁻¹ s⁻¹
B22	0.43 nM	0.00147 s⁻¹	4.3e+06 M⁻¹ s⁻¹
B23	51.6 nM	0.00236 s⁻¹	45800 M⁻¹ s⁻¹
B24	18.9 nM	–	1.85e+06 M⁻¹ s⁻¹
B25	58.5 nM	~0.0545 s⁻¹	1.38e+06 M⁻¹ s⁻¹

Target: T1, cynomolgus serum albumin
Experiment: SPR, CSA on chip, pH 5.5

Binder	Kd
B1	1.11 nM
B3	5.54 nM
B5	8.21 nM
B6	6.74 nM
B7	7.01 nM

Target: T5, B1 VNAR (C-terminal His6 or His6Myc tag, not said which)
T5 construct: shark VNAR domain; also called VNAR B1; B1 monomer
Experiment: competition ELISA: B1 pre-incubated with the peptide, residual binding to coated huROR1-Fc

T5 sequence (chain, as listed by the source): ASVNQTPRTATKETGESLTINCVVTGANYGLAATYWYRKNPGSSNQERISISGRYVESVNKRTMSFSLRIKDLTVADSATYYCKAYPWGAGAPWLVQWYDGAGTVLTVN

Binder	binding result
YMESLHMQGEIENQI (synthetic linear peptide) [ROR1 ECD Peptide 1]	no binding (tested: 10 uM)
B15	no binding (tested: 10 uM)
CQPWNSQYPHTHTFTALRFP (synthetic linear peptide) [ROR1 ECD Peptide 3]	no binding (tested: 10 uM)
QCVATNGKEVVSSTGVLFVKFGPPPTASPGYSDEYE (synthetic linear peptide) [ROR1 ECD Peptide 4]	no binding (tested: 10 uM)

Target: T6, D3 VNAR
T6 construct: shark VNAR domain; also called D3 WT; D3 monomer; not shown: C-terminal His6 or His6Myc tag (His6Myc in flow cytometry)
Experiment: competition ELISA: D3 pre-incubated with the peptide (25% DMSO), residual binding to coated huROR1-Fc

T6 sequence (chain, as listed by the source): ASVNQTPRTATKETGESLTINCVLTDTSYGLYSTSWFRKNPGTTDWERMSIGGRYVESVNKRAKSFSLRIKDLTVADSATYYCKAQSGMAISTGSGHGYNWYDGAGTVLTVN

Binder	binding result
YMESLHMQGEIENQI (synthetic linear peptide) [ROR1 ECD Peptide 1]	no binding
B15	no binding
CQPWNSQYPHTHTFTALRFP (synthetic linear peptide) [ROR1 ECD Peptide 3]	no binding
QCVATNGKEVVSSTGVLFVKFGPPPTASPGYSDEYE (synthetic linear peptide) [ROR1 ECD Peptide 4]	no binding
